Experimental data: patent US20020088015A1

Target: GAL4-WT1 (WT1 fused to the DNA-binding domain of GAL4) (UniProt P04386)
Assay: cell-based or functional assay

- WT1-mediated transcriptional repression of pGAL4TKCAT (CAT assay): 3 fold
Substance: par-4 expressed from pCMV-par-4 in transfected cells
